Experimental data reported in patent publication US20190092871A1 (VIB VZW, published 2019).
Changes are numbered by the printed parent chain.

B1: 2HCD73 (VHH)
VHH: QVQLQESGGGLVQAGGSLRLSCAASGRTFSRQSMGWFRQAPGEEREFVAVITWSGGSPYYADSVRGRFTISRDNAKNTVYLQMNSLKPEDTAVYYCAAPVSYGSQWLADYWGQGTQVTVSS
notes: Whole entry = VHH-AAA-HA-His6 (pMECS construct)
B2: 2HCD81 (VHH)
VHH: B1 VHH with R31S, Q32Y, S33N, E43K, T52S, R65K, Q105S
notes: as for B1
B3: R3CD18 (VHH)
VHH: QVQLQESGGGLVQAGGSLRLSCAASGRTFSNSNMGWFRQAPGKEREFVAVIDWSGGSPYYTDSVRGRFTISRDNAKNTVYLQMNRLKPEDTAVYYCAGGVSFGSRWLSDYWGQGTQVTVSS
notes: as for B1
B4: R3CD105 (VHH)
VHH: B1 VHH with R31N, Q32Y, S33N, E43K, V50A, T52D, D62A, K76E, V100L, Q105T
notes: as for B1
B5: 2HCD40 (VHH)
VHH: QVQLQESGGGLVQAGGSLRLSCAASGRTVGSYSMGWFRQAPGKEREFVAAVTWSGASPYYADSVKGRFTISRDNAKNTVYLQMNSLKPEDTAVYYCAANPTYSGGWHAEYWGQGTQVTVSS
notes: as for B1
B6: 2HCD17 (VHH)
VHH: B5 VHH with T52I
notes: as for B1
B7: 2HCD59 (VHH)
VHH: B5 VHH with L11S, V12E, A14P, W53R
notes: as for B1
B8: 2HCD68 (VHH)
VHH: B5 VHH with A14P, G26R, R27F, V29L, G30D, S31Y, S33A, M34I
notes: as for B1
B9: 2HCD88 (VHH)
VHH: B5 VHH with G16D
notes: as for B1
B10: 2HCD43 (VHH)
VHH: QVQLQESGGGLVQPGGSLRLSCTASGFTLDYYAIGWLRQAPGKEREGVSCISSSGGSTNYADSVKGRFTISRDNAKNTVYLLMNSLKPEDTAVYYCAAERTWVSNYYCSGDGDGYDYDYWGQGTQVTVSS
notes: as for B1
B11: 2HCD25 (VHH)
VHH: QVQLQESGGGLAQAGGSLRLSCAASGRTFSMGWFRQAPGKEREFVAAITYSGGSPYYASSVRGRFTISRDNAKNTVYLQMNSLKPEDTAVYYCAANPTYGSDWNAENWGQGTQVTVSS
notes: Whole entry = VHH-AAA-HA-His6 (pMECS construct); also called hCD20Nb
B12: 2HCD78 (VHH)
VHH: B11 VHH with A12V, A14P
notes: as for B1
B13: R3MCD137 (VHH)
VHH: QVQLQESGGGSVQAGGSLRLSCAASGSTFSIKAMGWYRQAPGKQRELVAAFISGRGSTKYADSVKGRFAISRDNAKNTMYLQMDSLEPEDTAVYYCYIVLPTGGGSAMDYWGEGTQVTVSS
notes: as for B1
B14: R3MCD22 (VHH)
VHH: B13 VHH with S11V, E46D, A50G, T58A, E87K, P101T, E113Q
notes: as for B1

Tests used:
human CD20 [1] = target: T1, human CD20 (human, UniProt P11836 1-297); assay: FACS, 5 ug/ml VHH on CHO-K1 cells stably expressing human CD20, FITC anti-his detection
T1 construct: The forward primer starts at codon 2; also called hCD20; CHO-K1-hCD20
T1 sequence: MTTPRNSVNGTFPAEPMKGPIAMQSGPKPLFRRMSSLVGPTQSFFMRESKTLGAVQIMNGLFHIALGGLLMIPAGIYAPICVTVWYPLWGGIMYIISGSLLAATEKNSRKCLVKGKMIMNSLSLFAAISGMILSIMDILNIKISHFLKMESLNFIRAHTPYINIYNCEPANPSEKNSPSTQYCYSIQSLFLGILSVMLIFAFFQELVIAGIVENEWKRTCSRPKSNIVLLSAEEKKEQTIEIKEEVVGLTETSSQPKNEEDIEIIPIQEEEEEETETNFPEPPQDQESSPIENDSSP
Protocol: (§1) To determine the binding activities of the VHHs specific for human or mouse CD20, FACS analysis was carried out. Specifically, CHO-K1 cells and CHO-K1 cells stably expressing human or mouse CD20 were incubated with 5 μg/ml of the VHHs produced in accordance with the application. A monoclonal FITC labelled anti-his antibody (Genscript #A01620) was applied as secondary stain. FACS analysis was done on a FacsCalibur flow cytometer (Becton Dickinson).

human CD20 [2] = target: T1, human CD20; assay: cell ELISA, crude periplasmic extract, CHO-K1 expressing human CD20 against parental CHO-K1
mouse CD20 = target: T2, mouse CD20 (mouse, UniProt P19437 1-291); assay: FACS, 5 ug/ml VHH on CHO-K1 cells stably expressing mouse CD20, FITC anti-his detection
T2 construct: whole, on cells; also called mCD20; CHO-K1-mCD20
T2 sequence (looked up): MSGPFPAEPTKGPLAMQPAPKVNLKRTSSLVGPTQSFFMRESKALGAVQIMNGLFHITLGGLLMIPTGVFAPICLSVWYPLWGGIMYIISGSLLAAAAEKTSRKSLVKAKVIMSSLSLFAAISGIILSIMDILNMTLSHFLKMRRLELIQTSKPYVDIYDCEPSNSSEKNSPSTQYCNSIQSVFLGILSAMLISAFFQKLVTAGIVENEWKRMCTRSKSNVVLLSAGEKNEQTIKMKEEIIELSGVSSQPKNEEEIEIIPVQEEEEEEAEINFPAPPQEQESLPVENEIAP
Protocol: as §1

Binder	binding result (human CD20 [1])	binding result (human CD20 [2])	other results
B1	binds		
B2	binds		
B3		binds	
B4		binds	
B5		binds	
B6	binds		
B7		binds	
B8		binds	
B9		binds	
B10		binds	
B11	binds		
B12	binds		
B13			binding result (mouse CD20): binds
B14			binding result (mouse CD20): binds
